Entries after “also recorded” stand apart in the source; their conditions may differ. Where two headings read alike, the source gives them in different places.
How the values were obtained:
[1] = pKa of the Schiff base from absorption spectra versus pH; format: physicochemical; conditions: singular value decomposition on absorption spectra, pH 6-11
Protocol: FIG. 8C illustrates absorption spectra recorded on purified protein between about pH 6 and about pH 11. Singular Value Decomposition of absorption spectra between 400-750 nm was used to calculate the fraction of the SB in the protonated state as a function of pH. The result was fit to a Hill function to determine the pKa of the SB.
(2) Spectroscopic characterization of Arch WT and D95N. The absorption spectra of fractionated E. coli membranes containing Arch WT and D95N were determined using an Ocean Optics USB4000 spectrometer with a DT-MINI-2-GS light source (FIG. 8). The peak extinction coefficients of microbial rhodopsins vary across rhodopsin types from 48,000 to 63,000 M^−1 cm^−1. Due to the high homology between Arch and bacteriorhodopsin (BR), the BR extinction coefficient, 63,000 M^−1 cm^−1, was used for Arch. […] For Arch WT, 633 nm was in the tail of the absorption while for Arch D95N 633 nm lay halfway down the shoulder. The relative extinction coefficients of Arch WT and D95N at 633 nm was independent of the choice to use BR as the reference for the peak extinction coefficient. Absorption spectra for Arch WT and D95N were measured as a function of pH between pH 6 and 11.

[2] = Relative photostability of Arch and eGFP (photobleaching of Arch-eGFP fusion); format: physicochemical; conditions: measured in a 1:1 fusion with eGFP
Protocol: (3) Relative photostability of Arch and eGFP. To perform a direct comparison of photostability of Arch and eGFP the photobleaching of the Arch-eGFP fusion was studied. This strategy guaranteed a 1:1 stoichiometry of the two fluorophores, simplifying the analysis. The experiments were performed on permeabilized cells, in the microscope, with video recording as the cells photobleached. A movie of photobleaching of Arch was first recorded under 640 nm illumination; then on the same field of view photobleaching of eGFP under 488 nm illumination was recorded, with illumination intensity adjusted to yield approximately the same initial count rate as for Arch. Fluorescence background levels were obtained from nearby protein-free regions of each movie and were subtracted from the intensity of the protein-containing regions. The area under each photobleaching timetrace was calculated, yielding an estimate of the total number of detected photons from each fluorophore. The eGFP emission (lambda-max=509 nm) and the Arch emission (lambda-max=687 nm) were collected through different emission filters, so the raw counts were corrected for the transmission spectra of the filters and the wavelength-dependent quantum yield of the EMCCD camera. The result was that the relative number of photons emitted prior to photobleaching for eGFP:Arch WT was 3.9:1, and for eGFP:ArchD95N this ratio was 10:1.

HEK cells = test: Step response of fluorescence to membrane potential steps; format: cell-based; conditions: for Approx response time: Table 2, described herein; for τresponse: determined from step-response
Protocol: The step response was measured in a similar manner, except that test waveforms consisted of a series of voltage pulses, from −70 mV to +30 mV with duration 300 ms and period 1 s. Cells were subjected to 20 repetitions of the waveform, and the fluorescence response was averaged over all iterations.

[3] = system: cultured rat hippocampal neurons; test: Optical recording of action potentials in cultured neurons; format: cell-based
Protocol: Arch was tested as a voltage indicator in cultured rat hippocampal neurons, using viral delivery (Methods 10-11). […] Individual spikes were accompanied by clearly identifiable increases of whole-field fluorescence (FIG. 11B). Preferentially weighting pixels whose intensity co-varied with the whole-field fluorescence led to an about 74% improvement in SNR (FIG. 11C). This training procedure made no use of the electrical recording. Training the pixel-weighting algorithm on the electrical recording led to a further 5% increase in SNR. (FIG. 11D).
(11) Neuronal cell culture. E18 rat hippocampi were purchased from BrainBits and mechanically dissociated in the presence of 1 mg/mL papain (Worthington) before plating at 5,000 to 30,000 cells per dish on poly-L-lysine and Matrigel-coated (BD Biosciences) glass-bottom dishes. […] Cells were incubated in N+ medium (100 mL Neurobasal medium, 2 mL B27 supplement, 0.5 mM glutamine, 25 micromolar glutamate, penicillin-streptomycin) for 3 hours. An additional 300 microliter virus medium was added to the cells and incubated overnight, then brought to a final volume of 2 mL N+ medium. After two days, cells were fed with 1.5 mL N+ medium. Cells were fed with 1 mL N+ medium without glutamate at 4 DIV, and fed 1 mL every 3-4 days after. Cells were allowed to grow until 10-14 DIV. […]
Whole-cell current clamp recordings were obtained from mature neurons under the same conditions used for HEK cells recordings. Series resistance and pipette capacitance were corrected. Only neurons having resting potentials between −50 and −70 mV were used in the analysis.
(12) Spike sorting. A spike identification algorithm was developed that could be applied either to electrically recorded V(t) or to optically determined VFL(t). The input trace was convolved with a reference spike. Sections of the convolved waveform that crossed a user-defined threshold were identified as putative spikes. Multiple spikes that fell within 10 ms (a consequence of noise-induced glitches near threshold) were clustered and identified as one.

[4] = steps between −70 mV and +30 mV

B1: Arch D95N: Archaerhodopsin 3 with aspartic acid 95 mutated to asparagine; non-pumping voltage indicator (protein, UniProt P96787 7-258, looked up, variant D95N)
Archaerhodopsin-3: QAGYDLLGDGRPETLWLGIGTLLMLIGTFYFLVRGWGVTDKDAREYYAVTILVPGIASAAYLSMFFGIGLTEVTVGGEMLDIYYARYANWLFTTPLLLLDLALLAKVDRVTIGTLVGVDALMIVTGLIGALSHTAIARYSWWLFSTICMIVVLYFLATSLRSAAKERGPEVASTFNTLTALVLVLWTAYPILWIIGTEGAGVVGLGIETLLFMVLDVTAKVGFGFILLRSRAILGDTEAPEPSAGADVSAAD
pKa of SB [1]: 8.9 | Photostability relative to eGFP [2]: 0.1 | response time (HEK cells): 41 ms | Approx response time (HEK cells): 41 ms | τresponse (HEK cells): 41 ms | response time (HEK cells; listed as Arch 3 D95N): 40 ms | fast component of step response (HEK cells; [4]): < 500 μs | fraction of step response that is fast (HEK cells; [4]): about 20% | time constant of slow component of step response (HEK cells; [4]): 41 ms | fraction of step response that is fast (HEK cells; steps between −70 mV and +30 mV, listed as ArchD95N): 20% | effect of illumination on membrane potential / spiking in neurons ([3]; I=1800 W/cm^2, λ=640 nm): did not perturb membrane potential; also recorded: no effect of illumination on spiking or resting potential

B2: Archaerhodopsin 3 (protein)
chain: MDPIALQAGYDLLGDGRPETLWLGIGTLLMLIGTFYFLVRGWGVTDKDAREYYAVTILVPGIASAAYLSMFFGIGLTEVTVGGEMLDIYYARYADWLFTTPLLLLDLALLAKVDRVTIGTLVGVDALMIVTGLIGALSHTAIARYSWWLFSTICMIVVLYFLATSLRSAAKERGPEVASTFNTLTALVLVLWTAYPILWIIGTEGAGVVGLGIETLLFMVLDVTAKVGFGFILLRSRAILGDTEAPEPSAGADVSAAD
modifications: Halorubrum sodomense
notes: Microbial rhodopsin from Halorubrum sodomense, light-driven proton pump used as fluorescent voltage indicator; experiments used an Arch-eGFP fusion
pKa of SB [1]: 10.1 | Photostability relative to eGFP [2]: 0.25 | time for 90% of step response (HEK cells): < 0.5 ms | Approx response time (HEK cells): <0.5 ms | τresponse (HEK cells): < 0.5 ms | optical signal-to-noise ratio of single electrically triggered action potentials [3]: greater than 10 | increase in fluorescence after addition of supplemental retinal ([3]; 10 μM retinal, over 30 minutes, neuron depolarized with CCCP): 30-60% | signal-to-noise ratio in the fluorescence (spike amplitude:baseline noise) ([3]; 2 kHz frame rate, single trial): about 10.5 | light-induced outward photocurrent in neurons ([3]; I=1800 W/cm^2, total internal reflection mode): about 10 pA | shift of resting potential by photocurrent ([3]; current-clamp, I=1800 W/cm^2): up to −20 mV | false-positive rate of spike identification ([3]; n=269 spikes): 0.7% | spikes correctly identified by spike-finding algorithm ([3]; n=269 spikes, versus simultaneously recorded membrane potential): 99.6% | r.m.s. deviation between fluorescence and voltage ([3]; pixel weights from correlation to electrophysiology data): 4.0 mV | r.m.s. deviation of fluorescence from electrophysiology data ([3]; pixel weights from correlation to whole-field intensity): 4.2 mV | r.m.s. deviation of fluorescence from electrophysiology data ([3]; whole-field fluorescence, single trial, 500 frames/s): 7.3 mV
